From patent US20030134325A1

What was measured:
[1] = molecular target: mouse immunoglobulin (MIgG); experiment: binding to BIOMAG-MIgG; fluorescence
[2] = molecular target: phycobilisome-GAM conjugate (glutaraldehyde-stabilized P. cruentum phycobilisomes conjugated to affinity-purified, Fc-specific goat anti-mouse IgG); experiment: microtiter displacement of conjugate prebound to RIgG-coated wells (competitor RIgG); MIgG 1 ng/test
[3] = molecular target: phycobilisome-GAM conjugate (glutaraldehyde-stabilized P. cruentum phycobilisomes conjugated to affinity-purified, Fc-specific goat anti-mouse IgG); experiment: displacement of conjugate prebound to BIOMAG-RIgG (competitor RIgG); MIgG 100 ng/test
[4] = molecular target: phycobilisome-GAM conjugate (glutaraldehyde-stabilized P. cruentum phycobilisomes conjugated to affinity-purified, Fc-specific goat anti-mouse IgG); experiment: displacement of conjugate prebound to BIOMAG-RIgG (competitor RIgG); MIgG 10 ng/test
[5] = molecular target: phycobilisome-GAM conjugate (glutaraldehyde-stabilized P. cruentum phycobilisomes conjugated to affinity-purified, Fc-specific goat anti-mouse IgG); experiment: displacement of conjugate prebound to BIOMAG-RIgG (competitor RIgG); MIgG 1,000 ng/test
[6] = molecular target: phycobilisome-GAM conjugate (glutaraldehyde-stabilized P. cruentum phycobilisomes conjugated to affinity-purified, Fc-specific goat anti-mouse IgG); experiment: displacement of conjugate prebound to BIOMAG-RIgG (competitor RIgG); MIgG 1 ng/test
[7] = molecular target: phycobilisome-GAM conjugate (glutaraldehyde-stabilized P. cruentum phycobilisomes conjugated to affinity-purified, Fc-specific goat anti-mouse IgG); experiment: displacement of conjugate prebound to BIOMAG-RIgG (competitor RIgG); MIgG 10,000 ng/test
[8] = molecular target: phycobilisome-GAM conjugate (glutaraldehyde-stabilized P. cruentum phycobilisomes conjugated to affinity-purified, Fc-specific goat anti-mouse IgG); experiment: microtiter displacement of conjugate prebound to RIgG-coated wells (competitor RIgG); MIgG 1,000 ng/test
[9] = molecular target: phycobilisome-GAM conjugate (glutaraldehyde-stabilized P. cruentum phycobilisomes conjugated to affinity-purified, Fc-specific goat anti-mouse IgG); experiment: microtiter displacement of conjugate prebound to RIgG-coated wells (competitor RIgG); MIgG 100 ng/test
[10] = molecular target: phycobilisome-GAM conjugate (glutaraldehyde-stabilized P. cruentum phycobilisomes conjugated to affinity-purified, Fc-specific goat anti-mouse IgG); experiment: microtiter displacement of conjugate prebound to RIgG-coated wells (competitor RIgG); MIgG 10 ng/test
[11] = molecular target: mouse immunoglobulin (MIgG); experiment: photometric; PB-GAM 12 ug/test, soluble MIgG 10 ug/test, BIOMAG-MIgG 100 ug/test
[12] = molecular target: mouse immunoglobulin (MIgG); experiment: photometric; PB-GAM 3 ug/test, soluble MIgG 10 ug/test, BIOMAG-MIgG 300 ug/test
[13] = molecular target: mouse immunoglobulin (MIgG); experiment: photometric; PB-GAM 12 ug/test, BIOMAG-MIgG 100 ug/test
[14] = molecular target: mouse immunoglobulin (MIgG); experiment: competitive fluoroimmunoassay; 250 ng conjugate, 250 ug BIOMAG-MIgG per test; soluble MIgG 0
[15] = molecular target: mouse immunoglobulin (MIgG); experiment: photometric; PB-GAM 12 ug/test, BIOMAG-MIgG 300 ug/test
[16] = molecular target: mouse immunoglobulin (MIgG); experiment: photometric; PB-GAM 12 ug/test, soluble MIgG 0, BIOMAG-MIgG 300 ug/test
[17] = molecular target: mouse immunoglobulin (MIgG); experiment: photometric; PB-GAM 3 ug/test, BIOMAG-MIgG 30 ug/test
[18] = molecular target: mouse immunoglobulin (MIgG); experiment: competitive fluoroimmunoassay; 250 ng conjugate, 250 ug BIOMAG-MIgG per test; soluble MIgG 1,000 ng/test
rabbit IgG (RIgG) [19] = experiment: displacement assay; conjugate prebound to BIOMAG-RIgG; MIgG 0 ng/test (baseline)
[20] = molecular target: mouse immunoglobulin (MIgG); experiment: photometric; PB-GAM 3 ug/test, BIOMAG-MIgG 100 ug/test
[21] = molecular target: mouse immunoglobulin (MIgG); experiment: 50 ul conjugate (80 ug/ml) + BIOMAG-MIgG 1 mg/test; soluble MIgG 0
[22] = molecular target: mouse immunoglobulin (MIgG); experiment: photometric; PB-GAM 12 ug/test, soluble MIgG 0, BIOMAG-MIgG 30 ug/test
[23] = molecular target: mouse immunoglobulin (MIgG); experiment: photometric; PB-GAM 3 ug/test, soluble MIgG 0, BIOMAG-MIgG 100 ug/test
rabbit IgG (RIgG) [24] = experiment: microtiter displacement assay; conjugate prebound to RIgG-coated wells; MIgG 0 ng/test (baseline)
[25] = molecular target: mouse immunoglobulin (MIgG); experiment: photometric; PB-GAM 40 ug/test, BIOMAG-MIgG 30 ug/test
[26] = molecular target: mouse immunoglobulin (MIgG); experiment: competitive fluoroimmunoassay; 250 ng conjugate, 250 ug BIOMAG-MIgG per test; soluble MIgG 1 ng/test
[27] = molecular target: mouse immunoglobulin (MIgG); experiment: photometric; PB-GAM 12 ug/test, BIOMAG-MIgG 30 ug/test
[28] = molecular target: mouse immunoglobulin (MIgG); experiment: photometric; PB-GAM 12 ug/test, soluble MIgG 10 ug/test, BIOMAG-MIgG 30 ug/test
[29] = molecular target: mouse immunoglobulin (MIgG); experiment: photometric; PB-GAM 40 ug/test, soluble MIgG 0, BIOMAG-MIgG 100 ug/test
[30] = molecular target: mouse immunoglobulin (MIgG); experiment: competitive fluoroimmunoassay; 250 ng conjugate, 250 ug BIOMAG-MIgG per test; soluble MIgG 10 ng/test
[31] = molecular target: mouse immunoglobulin (MIgG); experiment: photometric; PB-GAM 3 ug/test, soluble MIgG 10 ug/test, BIOMAG-MIgG 30 ug/test
[32] = molecular target: mouse immunoglobulin (MIgG); experiment: photometric; PB-GAM 40 ug/test, BIOMAG-MIgG 300 ug/test
[33] = molecular target: mouse immunoglobulin (MIgG); experiment: competitive fluoroimmunoassay; 250 ng conjugate, 250 ug BIOMAG-MIgG per test; soluble MIgG 100 ng/test
[34] = molecular target: mouse immunoglobulin (MIgG); experiment: photometric; PB-GAM 40 ug/test, soluble MIgG 10 ug/test, BIOMAG-MIgG 100 ug/test
[35] = molecular target: mouse immunoglobulin (MIgG); experiment: photometric; PB-GAM 40 ug/test, soluble MIgG 0, BIOMAG-MIgG 300 ug/test
[36] = molecular target: mouse immunoglobulin (MIgG); experiment: 50 ul conjugate (80 ug/ml) + BIOMAG-MIgG 1 mg/test; soluble MIgG 1 ng/test
[37] = molecular target: mouse immunoglobulin (MIgG); experiment: photometric; PB-GAM 40 ug/test, soluble MIgG 10 ug/test, BIOMAG-MIgG 300 ug/test
[38] = molecular target: mouse immunoglobulin (MIgG); experiment: photometric; PB-GAM 3 ug/test, soluble MIgG 0, BIOMAG-MIgG 300 ug/test
[39] = molecular target: mouse immunoglobulin (MIgG); experiment: photometric; PB-GAM 12 ug/test, soluble MIgG 0, BIOMAG-MIgG 100 ug/test
[40] = molecular target: mouse immunoglobulin (MIgG); experiment: photometric; PB-GAM 40 ug/test, soluble MIgG 0, BIOMAG-MIgG 30 ug/test
[41] = molecular target: mouse immunoglobulin (MIgG); experiment: photometric; PB-GAM 3 ug/test, soluble MIgG 10 ug/test, BIOMAG-MIgG 100 ug/test
[42] = molecular target: mouse immunoglobulin (MIgG); experiment: binding to BIOMAG-MIgG, solid phase in pseudo-excess; fluorescence
[43] = molecular target: mouse immunoglobulin (MIgG); experiment: photometric; PB-GAM 3 ug/test, soluble MIgG 0, BIOMAG-MIgG 30 ug/test
[44] = molecular target: mouse immunoglobulin (MIgG); experiment: photometric; PB-GAM 40 ug/test, soluble MIgG 10 ug/test, BIOMAG-MIgG 30 ug/test
[45] = molecular target: mouse immunoglobulin (MIgG); experiment: photometric; PB-GAM 3 ug/test, BIOMAG-MIgG 300 ug/test
[46] = molecular target: mouse immunoglobulin (MIgG); experiment: photometric; PB-GAM 12 ug/test, soluble MIgG 10 ug/test, BIOMAG-MIgG 300 ug/test
[47] = molecular target: mouse immunoglobulin (MIgG); experiment: 50 ul conjugate (80 ug/ml) + BIOMAG-MIgG 1 mg/test; soluble MIgG 10 ug/test
[48] = molecular target: mouse immunoglobulin (MIgG); experiment: photometric; PB-GAM 40 ug/test, BIOMAG-MIgG 100 ug/test

GAM antibody conjugated by glutaraldehyde to formaldehyde-stabilized phycobilisomes
% specific binding [1]: 60%

mouse immunoglobulin (MIgG) (antibody)
% of maximal displacement [2]: 36.8%
E666 (fluorescence) [2]: 411000 cps
displacement [2]: 68000 cps
% of maximal displacement [3]: 35.3%
E666 (supernatant fluorescence) [3]: 1.16e+06 cps
displacement [3]: 109000 cps
% of maximal displacement [4]: 10.4%
E666 (supernatant fluorescence) [4]: 1.08e+06 cps
displacement [4]: 32000 cps
% of maximal displacement [5]: 62.5%
E666 (supernatant fluorescence) [5]: 1.25e+06 cps
displacement [5]: 193000 cps
% of maximal displacement [6]: 6.1%
E666 (supernatant fluorescence) [6]: 1.07e+06 cps
displacement [6]: 19000 cps
% of maximal displacement [7]: 100%
E666 (supernatant fluorescence) [7]: 1.36e+06 cps
displacement [7]: 309000 cps
% of maximal displacement [8]: 100%
E666 (fluorescence) [8]: 528000 cps
displacement [8]: 185000 cps
% of maximal displacement [9]: 98.4%
E666 (fluorescence) [9]: 525000 cps
displacement [9]: 182000 cps
% of maximal displacement [10]: 73%
E666 (fluorescence) [10]: 478000 cps
displacement [10]: 135000 cps

phycobilisome-GAM conjugate (glutaraldehyde-stabilized P. cruentum phycobilisomes conjugated to affinity-purified, Fc-specific goat anti-mouse IgG) (antibody)
Supernatant Absorbance [11]: 68 mAU/ml
Supernatant Absorbance [12]: 12 mAU/ml
% binding [13]: 20.6%
% bound [14]: 24.3%
E666 [14]: 374000 cps
% binding [15]: 33.3%
Supernatant Absorbance [16]: 44 mAU/ml
% binding [17]: 0%
% bound [18]: 0%
E666 [18]: 494000 cps
inhibition [18]: 120000 cps
E666 (supernatant fluorescence) (rabbit IgG (RIgG) [19]): 1.05e+06 cps
% binding [20]: 16.7%
% bound [21]: 42.1%
Supernatant E666 [21]: 2.24e+06 cps
Supernatant Absorbance [22]: 63 mAU/ml
Supernatant Absorbance [23]: 10 mAU/ml
E666 (fluorescence) (rabbit IgG (RIgG) [24]): 343000 cps
% binding [25]: 0%
% bound [26]: 19%
E666 [26]: 400000 cps
inhibition [26]: 26000 cps
% binding [27]: 4.5%
Supernatant Absorbance [28]: 66 mAU/ml
Supernatant Absorbance [29]: 200 mAU/ml
% bound [30]: 11.1%
E666 [30]: 439000 cps
inhibition [30]: 65000 cps
Supernatant Absorbance [31]: 12 mAU/ml
% binding [32]: 18.8%
% bound [33]: 0.8%
E666 [33]: 490000 cps
inhibition [33]: 116000 cps
Supernatant Absorbance [34]: 212 mAU/ml
Supernatant Absorbance [35]: 173 mAU/ml
% bound [36]: 28%
MIgG inhibition [36]: 547000 cps
Supernatant E666 [36]: 2.79e+06 cps
Supernatant Absorbance [37]: 213 mAU/ml
Supernatant Absorbance [38]: 4 mAU/ml
Supernatant Absorbance [39]: 54 mAU/ml
Supernatant Absorbance [40]: 210 mAU/ml
Supernatant Absorbance [41]: 12 mAU/ml
% specific binding [42]: < 60%
Supernatant Absorbance [43]: 12 mAU/ml
Supernatant Absorbance [44]: 210 mAU/ml
% binding [45]: 66.7%
Supernatant Absorbance [46]: 66 mAU/ml
% bound [47]: 0%
MIgG inhibition [47]: 1.63e+06 cps
Supernatant E666 [47]: 3.88e+06 cps
% binding [48]: 4.7%
